Experimental data from IntAct's records for PubMed 19876371.

B1: Glucose-1-phosphate adenylyltransferase large subunit 1 (Solanum tuberosum (Potato)), Q00081 (parent)
chain: NKIKPGVAYSVITTENDTQTVFVDMPRLERRRANPKDVAAVILGGGEGTKLFPLTSRTATPAVPVGGCYRLIDIPMSNCINSAINKIFVLTQYNSAPLNRHIARTYFGNGVSFGDGFVEVLAATQTPGEAGKKWFQGTADAVRKFIWVFEDAKNKNIENIVVLSGDHLYRMDYMELVQNHIDRNADITLSCAPAEDSRASDFGLVKIDSRGRVVQFAEKPKGFDLKAMQVDTTLVGLSPQDAKKSPYIASMGVYVFKTDVLLKLLKWSYPTSNDFGSEIIPAAIDDYNVQAYIFKDYWEDIGTIKSFYNASLALTQEFPEFQFYDPKTPFYTSPRFLPPTKIDNCKIKDAIISHGCFLRDCSVEHSIVGERSRLDCGVELKDTFMMGADYYQTESEIASLLAEGKVPIGIGENTKIRKCIIDKNAKIGKNVSIINKDGVQEADRPEEGFYIRSGIIIILEKATIRDGTVI
partner: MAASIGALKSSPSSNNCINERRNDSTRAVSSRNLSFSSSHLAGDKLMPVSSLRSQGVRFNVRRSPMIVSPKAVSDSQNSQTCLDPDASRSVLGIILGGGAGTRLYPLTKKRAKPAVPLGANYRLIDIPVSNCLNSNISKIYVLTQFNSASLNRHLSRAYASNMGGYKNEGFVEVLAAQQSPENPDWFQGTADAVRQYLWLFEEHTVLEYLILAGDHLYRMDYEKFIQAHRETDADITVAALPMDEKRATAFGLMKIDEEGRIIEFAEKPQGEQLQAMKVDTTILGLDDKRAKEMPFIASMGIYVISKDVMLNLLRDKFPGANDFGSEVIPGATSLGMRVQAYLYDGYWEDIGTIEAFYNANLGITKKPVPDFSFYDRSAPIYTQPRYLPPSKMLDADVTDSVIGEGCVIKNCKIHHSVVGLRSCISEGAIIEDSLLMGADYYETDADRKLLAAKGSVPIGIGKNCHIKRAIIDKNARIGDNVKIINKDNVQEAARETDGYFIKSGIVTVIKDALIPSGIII

Variants of: B1
Details: with glgs_soltu glgs

Effect of a mutation on the interaction, disrupting interaction:
NKIKPGVAYSVITTENDTQTVFVDMPRLERRRANPKDVAAVILGGGEGTKLFPLTSRTATPAVPVGGCYRLIDIPMSNCINSAINKIFVLTQYNSAPLNAHIARTYFGNGVSFGDGFVEVLAATQTPGEAGKKWFQGTADAVRKFIWVFEDAKNKNIENIVVLSGDHLYRMDYMELVQNHIDRNADITLSCAPAEDSRASDFGLVKIDSRGRVVQFAEKPKGFDLKAMQVDTTLVGLSPQDAKKSPYIASMGVYVFKTDVLLKLLKWSYPTSNDFGSEIIPAAIDDYNVQAYIFKDYWEDIGTIKSFYNASLALTQEFPEFQFYDPKTPFYTSPRFLPPTKIDNCKIKDAIISHGCFLRDCSVEHSIVGERSRLDCGVELKDTFMMGADYYQTESEIASLLAEGKVPIGIGENTKIRKCIIDKNAKIGKNVSIINKDGVQEADRPEEGFYIRSGIIIILEKATIRDGTVI [R100A]
NKIKPGVAYSVITTENDTQTVFVDMPRLERRRANPKDVAAVILGGGEGTKLFPLTSRTATPAVPVGGCYRLIDIPMSNCINSAINKIFVLTQYNSAPLNRHIARTYFGNGVSFGDGFVEVLAATQTPGEAGKKWFQGTADAVRKFIWVFEDAKNKNIENIVVLSGDHLYRMDYMELVQNHIDRNADITLSCAPAEDSRASDFGLVKIDSRGRVVQFAEKPKGFDLKAMQVDTTLVGLSPQDAKKSPYIASMGVYVFKTDVLLKLLKWSYPTSNDFGSEIIPAAIDDYNVQAYIFKDYWEDIGTIKSFYNASLALTQEFPEFQFYDPKTPFYTSPRFLPATKIDNCKIKDAIISHGCFLRDCSVEHSIVGERSRLDCGVELKDTFMMGADYYQTESEIASLLAEGKVPIGIGENTKIRKCIIDKNAKIGKNVSIINKDGVQEADRPEEGFYIRSGIIIILEKATIRDGTVI [P339A]
NKIKPGVAYSVITTENDTQTVFVDMPRLERRRANPKDVAAVILGGGEGTKLFPLTSRTATPAVPVGGCYRLIDIPMSNCINSAINKIFVLTQYNSAPLNRHIARTYFGNGVSFGDGFVEVLAATQTPGEAGKKWFQGTADAVRKFIWVFEDAKNKNIENIVVLSGDHLYRMDYMELVQNHIDRNADITLSCAPAEDSRASDFGLVKIDSRGRVVQFAEKPKGFDLKAMQVDTTLVGLSPQDAKKSPYIASMGVYVFKTDVLLKLLKWSYPTSNDFGSEIIPAAIDDYNVQAYIFKDYWEDIGTIKSFYNASLALTQEFPEFQFYDPKTPFYTSPRFLPPTKIDNCKAKDAIISHGCFLRDCSVEHSIVGERSRLDCGVELKDTFMMGADYYQTESEIASLLAEGKVPIGIGENTKIRKCIIDKNAKIGKNVSIINKDGVQEADRPEEGFYIRSGIIIILEKATIRDGTVI [I347A]
NKIKPGVAYSVITTENDTQTVFVDMPRLERRRANPKDVAAVILGGGEGTKLFPLTSRTATPAVPVGGCYRLIDIPMSNCINSAINKIFVLTQYNSAPLNRHIARTYFGNGVSFGDGFVEVLAATQTPGEAGKKWFQGTADAVRKFIWVFEDAKNKNIENIVVLSGDHLYRMDYMELVQNHIDRNADITLSCAPAEDSRASDFGLVKIDSRGRVVQFAEKPKGFDLKAMQVDTTLVGLSPQDAKKSPYIASMGVYVFKTDVLLKLLKWSYPTSNDFGSEIIPAAIDDYNVQAYIFKDYWEDIGTIKSFYNASLALTQEFPEFQFYDPKTPFYTSPRFLPPTKIDNCKIKDAAASHGCFLRDCSVEHSIVGERSRLDCGVELKDTFMMGADYYQTESEIASLLAEGKVPIGIGENTKIRKCIIDKNAKIGKNVSIINKDGVQEADRPEEGFYIRSGIIIILEKATIRDGTVI [I351A;I352A]
NKIKPGVAYSVITTENDTQTVFVDMPRLERRRANPKDVAAVILGGGEGTKLFPLTSRTATPAVPVGGCYRLIDIPMSNCINSAINKIFVLTQYNSAPLNRHIARTYFGNGVSFGDGFVEVLAATQTPGEAGKKWFQGTADAVRKFIWVFEDAKNKNIENIVVLSGDHLYRMDYMELVQNHIDRNADITLSCAPAEDSRASDFGLVKIDSRGRVVQFAEKPKGFDLKAMQVDTTLVGLSPQDAKKSPYIASMGVYVFKTDVLLKLLKWSYPTSNDFGSEIIPAAIDDYNVQAYIFKDYWEDIGTIKSFYNASLALTQEFPEFQFYDPKTPFYTSPRFLPPTKADNCKIKDAIISHGCFLRDCSVEHSIVGERSRLDCGVELKDTFMMGADYYQTESEIASLLAEGKVPIGIGENTKIRKCIIDKNAKIGKNVSIINKDGVQEADRPEEGFYIRSGIIIILEKATIRDGTVI [I342A]
